Substrate in data set [1]: CC=O
The data set can be described thus: purified protein. In kind it is biochemical, Homo sapiens. To be noted: NAD+.

Substrate in data set [2]: CC(=O)Oc1ccc([N+](=O)[O-])cc1
The data set can be described thus: purified protein.

In article PMC2440601 one finds Km and Vmax data, which are given here for two proteins.

One may read the Km as the concentration of substrate that gives half-maximal velocity. One may read the Vmax as the top rate of the reaction or transport when substrate is in excess.

B1: ALDH1 (cytosolic aldehyde dehydrogenase, ALDH1A1) (Homo sapiens) (protein)
chain: SSSGTPDLPVLLTDLKIQYTKIFINNEWHDSVSGKKFPVFNPATEEELCQVEEGDKEDVDKAVKAARQAFQIGSPWRTMDASERGRLLYKLADLIERDRLLLATMESMNGGKLYSNAYLNDLAGCIKTLRYCAGWADKIQGRTIPIDGNFFTYTRHEPIGVCGQIIPWNFPLVMLIWKIGPALSCGNTVVVKPAEQTPLTALHVASLIKEAGFPPGVVNIVPGYGPTAGAAISSHMDIDKVAFTGSTEVGKLIKEAAGKSNLKRVTLELGGKSPCIVLADADLDNAVEFAHHGVFYHQGQCCIAASRIFVEESIYDEFVRRSVERAKKYILGNPLTPGVTQGPQIDKEQYDKILDLIESGKKEGAKLECGGGPWGNKGYFVQPTVFSNVTDEMRIAKEEIFGPVQQIMKFKSLDDVIKRANNTFYGLSAGVFTKDIDKAITISSALQAGTVWVNCYGVVSAQCPFGGFKMSGNGRELGEYGFHEYTEVKTVTVKISQKNS
With B1, in the data set “purified protein [1]”, the Michaelis-Menten constant (Km) came out at 200 ± 14 µM and the Vmax worked out at 1.06 ± 0.02 µmol/min/mg. In “purified protein [2]”, the Michaelis constant (Km) was 0.69 ± 0.03 µM and the Vmax was determined as 0.155 µmol/min/mg.

B2: ALDH2 (mitochondrial aldehyde dehydrogenase) (Homo sapiens) (protein)
chain: SAAATQAVPAPNQQPEVFCNQIFINNEWHDAVSRKTFPTVNPSTGEVICQVAEGDKEDVDKAVKAARAAFQLGSPWRRMDASHRGRLLNRLADLIERDRTYLAALETLDNGKPYVISYLVDLDMVLKCLRYYAGWADKYHGKTIPIDGDFFSYTRHEPVGVCGQIIPWNFPLLMQAWKLGPALATGNVVVMKVAEQTPLTALYVANLIKEAGFPPGVVNIVPGFGPTAGAAIASHEDVDKVAFTGSTEIGRVIQVAAGSSNLKRVTLELGGKSPNIIMSDADMDWAVEQAHFALFFNQGQCCCAGSRTFVQEDIYDEFVERSVARAKSRVVGNPFDSKTEQGPQVDETQFKKILGYINTGKQEGAKLLCGGGIAADRGYFIQPTVFGDVQDGMTIAKEEIFGPVMQILKFKTIEEVVGRANNSTYGLAAAVFTKDLDKANYLSQALQAGTVWVNCYDVFGAQSPFGGYKMSGSGRELGEYGLQAYTEVKTVTVKVPQKNS
B2: in the data set “purified protein [1]”, the Km worked out at 0.33 ± 0.005 µM and the Vmax worked out at 4 ± 0.03 µmol/min/mg. For the same protein, in “purified protein [2]”, the Michaelis constant (Km) is 0.18 ± 0.01 µM and the maximal velocity (Vmax) turned out to be 0.21 µmol/min/mg.
